Test results taken from PMC7376557.

Target: SasC aggregation domain (S. aureus surface protein C), His-tagged (S. aureus strain N315)
Test: SEC-MALS; FPLC-MALS (Wyatt Technology) of the purified His-tagged SasC aggregation domain; superpolymer of about 1,610 kDa against 41.5 kDa for the domain

Substance: SasC aggregation domain (S. aureus surface protein C), His-tagged (domain or fragment)
- stoichiometry N: > 35
